Test results from paper PMC3087855 (Nature structural & molecular biology, 2011).

Target: the molecule itself
Experiment: crystal structure

B1: bacteriophage P22 portal protein core (residues 1-602) (domain or fragment, UniProt P26744 1-602, looked up)
chain: MADNENRLESILSRFDADWTASDEARREAKNDLFFSRVSQWDDWLSQYTTLQYRGQFDVVRPVVRKLVSEMRQNPIDVLYRPKDGARPDAADVLMGMYRTDMRHNTAKIAVNIAVREQIEAGVGAWRLVTDYEDQSPTSNNQVIRREPIHSACSHVIWDSNSKLMDKSDARHCTVIHSMSQNGWEDFAEKYDLDADDIPSFQNPNDWVFPWLTQDTIQIAEFYEVVEKKETAFIYQDPVTGEPVSYFKRDIKDVIDDLADSGFIKIAERQIKRRRVYKSIITCTAVLKDKQLIAGEHIPIVPVFGEWGFVEDKEVYEGVVRLTKDGQRLRNMIMSFNADIVARTPKKKPFFWPEQIAGFEHMYDGNDDYPYYLLNRTDENSGDLPTQPLAYYENPEVPQANAYMLEAATSAVKEVATLGVDTEAVNGGQVAFDTVNQLNMRADLETYVFQDNLATAMRRDGEIYQSIVNDIYDVPRNVTITLEDGSEKDVQLMAEVVDLATGEKQVLNDIRGRYECYTDVGPSFQSMKQQNRAEILELLGKTPQGTPEYQLLLLQYFTLLDGKGVEMMRDYANKQLIQMGVKKPETPEEQQWLVEAQQAKQG
modifications: selenomethionine derivatized (methionines replaced by selenomethionine)
stoichiometry N: 12
